# According to patent US20230203188A1 (published 2023):
# T1: full-length cyno SIRPβ1v3 (XP_005568593, clone 1HC6), on CHO cells (cynomolgus monkey, UniProt A0A2K5VYQ9)
# T1 construct: whole, on cells; also called Cynomolgus SIRPβ1v3 XP-005568593 Clone 1HC6
# T1 sequence: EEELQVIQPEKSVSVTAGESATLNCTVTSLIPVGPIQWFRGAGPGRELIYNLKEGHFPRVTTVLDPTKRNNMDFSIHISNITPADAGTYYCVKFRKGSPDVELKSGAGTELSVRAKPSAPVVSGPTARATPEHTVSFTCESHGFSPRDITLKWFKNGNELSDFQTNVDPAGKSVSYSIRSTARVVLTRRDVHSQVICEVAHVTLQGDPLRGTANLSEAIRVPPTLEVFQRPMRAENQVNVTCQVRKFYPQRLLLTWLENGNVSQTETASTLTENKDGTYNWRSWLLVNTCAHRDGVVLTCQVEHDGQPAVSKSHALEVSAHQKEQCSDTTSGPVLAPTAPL
# B1: Antibody A (antibody, human IgG1, kappa, L234A L235A)
# heavy: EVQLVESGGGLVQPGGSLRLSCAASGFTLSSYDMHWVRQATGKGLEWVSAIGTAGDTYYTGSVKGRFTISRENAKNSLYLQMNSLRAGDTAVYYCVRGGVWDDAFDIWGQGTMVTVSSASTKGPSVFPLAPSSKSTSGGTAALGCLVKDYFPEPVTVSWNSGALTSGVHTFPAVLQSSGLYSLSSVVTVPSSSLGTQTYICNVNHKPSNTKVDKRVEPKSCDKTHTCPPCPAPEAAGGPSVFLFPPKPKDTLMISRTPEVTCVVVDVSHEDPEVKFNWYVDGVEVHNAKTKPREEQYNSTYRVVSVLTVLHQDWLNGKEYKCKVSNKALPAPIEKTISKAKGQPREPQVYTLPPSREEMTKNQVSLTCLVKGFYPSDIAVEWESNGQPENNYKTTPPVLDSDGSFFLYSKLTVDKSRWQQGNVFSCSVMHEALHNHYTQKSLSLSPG
# light: DIQMTQSPSSLSASVGDRVTITCRASQDINNYLAWFQQKPGKAPKSLIYTASSLHSGVPSKFSGSGSGTDFTLTISSLQPEDFATYYCQQYVSYPYTFGQGTKLEIKRTVAAPSVFIFPPSDEQLKSGTASVVCLLNNFYPREAKVQWKVDNALQSGNSQESVTEQDSKDSTYSLSSTLTLSKADYEKHKVYACEVTHQGLSSPVTKSFNRGEC
# notes: human IgG1 (LALA) backbone, kappa
# B2: Antibody A10 (antibody, human IgG1, kappa, L234A L235A)
# heavy: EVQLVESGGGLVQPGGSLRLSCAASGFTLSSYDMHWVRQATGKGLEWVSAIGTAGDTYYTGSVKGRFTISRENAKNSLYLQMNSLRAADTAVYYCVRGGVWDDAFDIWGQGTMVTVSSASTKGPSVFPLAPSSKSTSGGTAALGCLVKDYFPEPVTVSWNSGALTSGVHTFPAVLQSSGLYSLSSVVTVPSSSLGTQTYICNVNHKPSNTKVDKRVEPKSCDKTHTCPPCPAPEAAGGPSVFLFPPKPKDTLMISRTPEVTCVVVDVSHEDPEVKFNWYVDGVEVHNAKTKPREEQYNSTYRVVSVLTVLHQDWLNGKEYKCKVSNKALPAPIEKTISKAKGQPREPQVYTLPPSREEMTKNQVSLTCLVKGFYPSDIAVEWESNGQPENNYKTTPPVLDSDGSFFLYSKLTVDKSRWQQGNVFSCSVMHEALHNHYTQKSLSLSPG
# light: B1 light
# notes: engineered variant of Antibody A; IgG1 (LALA)
# B3: KWAR23 (antibody, V domains shown)
# VH: EVQLQQSGAELVKPGASVKLSCTASGFNIKDYYIHWVQQRTEQGLEWIGRIDPEDGETKYAPKFQDKATITADTSSNTAYLHLSSLTSEDTAVYYCARWGAYWGQGTLVTVSS
# VL: QIVLTQSPAIMSASPGEKVTLTCSASSSVSSSYLYWYQQKPGSSPKLWIYSTSNLASGVPARFSGSGSGTSYSLTISSMEAEDAASYFCHQWSSYPRTFGAGTKLELK
# Experiments:
# [1] = biological target: T2, full-length cyno SIRPβ1 (XP_005568598, clone PA2), on CHO cells (cynomolgus monkey); assay: flow cytometry on CHO cells expressing the target
# T2 construct: whole, on cells; also called Cynomolgus SIRPβ1 XP_005568598 Clone PA2
# Method: (§1) Antibody binding to cells expressing full-length cynomolgus SIRPβ1 (XP_005568598) and SIRPβ1v3 (XP_005568593) is evaluated by flow cytometry. SIRPβ1- or SIRPβ31V3-expressing CHO cells are blocked with donkey IgG and incubated on ice with increasing concentrations of antibodies for 60 minutes, washed and stained with AF647-conjugated donkey F(ab′)₂ anti-human IgG secondary reagent. Cells are washed, fixed, and analyzed by flow cytometry. Median fluorescent intensity is determined and used as a measure of antibody binding.
# [2] = biological target: T1, full-length cyno SIRPβ1v3 …; assay: flow cytometry on CHO cells expressing the target
# Method: as §1
binder,measurement,setting,value
B1,EC50,[1],700 pM
B2,EC50,[1],600 pM
B3,EC50,[2],400 pM
